Tests used:
Human SLIT1-N = target: T1, Human SLIT1-N (human, UniProt O75093 34-1127, limits assumed); assay: HTRF competition: d2-labelled human SLIT1-N binding to human ROBO2 on HEK293 cells; geometric mean, n=3
T1 construct: domain: SLIT1-N; d2-labelled in the HTRF assay
T1 sequence (looked up): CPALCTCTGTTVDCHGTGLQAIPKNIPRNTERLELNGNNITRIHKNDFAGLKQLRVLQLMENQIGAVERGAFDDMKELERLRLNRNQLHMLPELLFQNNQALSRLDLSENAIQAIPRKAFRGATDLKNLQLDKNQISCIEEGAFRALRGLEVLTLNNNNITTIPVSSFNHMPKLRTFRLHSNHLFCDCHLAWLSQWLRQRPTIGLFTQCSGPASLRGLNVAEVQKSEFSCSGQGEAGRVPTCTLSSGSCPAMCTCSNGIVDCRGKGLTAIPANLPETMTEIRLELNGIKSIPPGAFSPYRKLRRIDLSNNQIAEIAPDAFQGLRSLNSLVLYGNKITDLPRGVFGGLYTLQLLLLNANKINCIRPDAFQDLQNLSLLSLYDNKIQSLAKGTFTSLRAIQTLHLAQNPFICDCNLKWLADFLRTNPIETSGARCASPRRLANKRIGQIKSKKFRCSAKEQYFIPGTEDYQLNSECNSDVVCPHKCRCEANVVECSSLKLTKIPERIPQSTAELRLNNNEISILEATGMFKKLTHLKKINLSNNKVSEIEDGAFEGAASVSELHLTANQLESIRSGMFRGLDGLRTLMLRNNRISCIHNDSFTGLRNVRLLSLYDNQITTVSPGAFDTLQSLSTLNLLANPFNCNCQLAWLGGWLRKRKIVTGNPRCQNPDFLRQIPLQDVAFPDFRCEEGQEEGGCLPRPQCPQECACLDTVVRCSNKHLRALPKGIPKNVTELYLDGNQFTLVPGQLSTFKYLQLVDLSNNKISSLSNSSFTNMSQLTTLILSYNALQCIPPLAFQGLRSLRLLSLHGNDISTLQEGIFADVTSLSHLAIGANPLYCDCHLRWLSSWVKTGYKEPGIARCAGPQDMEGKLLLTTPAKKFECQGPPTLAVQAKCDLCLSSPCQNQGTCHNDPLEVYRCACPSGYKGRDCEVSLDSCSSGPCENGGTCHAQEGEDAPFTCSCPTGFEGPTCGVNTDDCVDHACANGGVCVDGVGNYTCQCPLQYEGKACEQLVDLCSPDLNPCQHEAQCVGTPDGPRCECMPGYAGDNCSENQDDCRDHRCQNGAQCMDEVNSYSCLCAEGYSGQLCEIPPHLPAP
Experimental: (§1) After incubation, fluorescence at 665 nm and 620 nm was measured on an Envision multilabel plate reader. The HTRF Ratio was calculated as follows: fluorescence at 665 nm/fluorescence at 620 nm×10,000. […] The IC₅₀ for each SLITx-N was determined using an 11-point, 4-fold dilution series with a top concentration of 4000 nM.

Mouse SLIT2-N = target: T2, Mouse SLIT2-N (mouse, UniProt Q9R1B9 26-1113, limits assumed); assay: HTRF competition: d2-labelled mouse SLIT2-N binding to human ROBO2 on HEK293 cells; geometric mean, n=3
T2 construct: domain: SLIT2-N; d2-labelled in the HTRF assay
T2 sequence (looked up): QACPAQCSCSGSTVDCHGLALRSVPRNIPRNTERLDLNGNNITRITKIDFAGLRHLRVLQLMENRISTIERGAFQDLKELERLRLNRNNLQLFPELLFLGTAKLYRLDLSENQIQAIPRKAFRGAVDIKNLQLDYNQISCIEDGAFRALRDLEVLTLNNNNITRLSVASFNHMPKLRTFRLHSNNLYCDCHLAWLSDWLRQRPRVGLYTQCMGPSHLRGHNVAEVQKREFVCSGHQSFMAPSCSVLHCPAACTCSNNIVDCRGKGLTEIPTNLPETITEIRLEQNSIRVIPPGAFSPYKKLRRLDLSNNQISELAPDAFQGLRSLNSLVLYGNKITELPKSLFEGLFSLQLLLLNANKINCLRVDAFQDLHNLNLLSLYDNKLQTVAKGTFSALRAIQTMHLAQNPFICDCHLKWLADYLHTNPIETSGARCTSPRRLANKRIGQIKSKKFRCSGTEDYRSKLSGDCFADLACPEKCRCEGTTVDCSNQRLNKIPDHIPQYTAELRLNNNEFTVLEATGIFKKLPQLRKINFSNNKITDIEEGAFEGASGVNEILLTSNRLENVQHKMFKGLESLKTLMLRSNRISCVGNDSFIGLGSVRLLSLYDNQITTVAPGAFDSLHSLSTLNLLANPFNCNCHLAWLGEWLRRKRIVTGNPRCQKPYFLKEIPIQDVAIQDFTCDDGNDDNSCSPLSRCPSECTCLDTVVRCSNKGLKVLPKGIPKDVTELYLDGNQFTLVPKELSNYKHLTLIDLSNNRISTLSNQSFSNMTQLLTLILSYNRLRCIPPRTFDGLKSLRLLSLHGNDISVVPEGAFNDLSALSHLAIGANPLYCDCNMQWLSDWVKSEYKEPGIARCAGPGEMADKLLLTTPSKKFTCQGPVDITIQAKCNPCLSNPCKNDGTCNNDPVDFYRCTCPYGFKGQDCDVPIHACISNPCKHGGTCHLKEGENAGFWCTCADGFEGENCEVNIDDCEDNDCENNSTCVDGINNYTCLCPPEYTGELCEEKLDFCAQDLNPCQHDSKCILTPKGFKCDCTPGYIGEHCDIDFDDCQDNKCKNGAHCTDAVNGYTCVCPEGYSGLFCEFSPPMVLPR
Experimental: as §1

B1: ROBO2-Fc 2.2 (Fc fusion)
chain: SRLRQEDFPPRIVEHPSDVIVSKGEPTTLNCKAEGRPTPTIEWYKDGERVETDKDDPRSHRMLLPSGSLFFLRIVHGRRSKPDEGSYVCVARNYLGEAVSRNASLEVALLRDDFRQNPTDVVVAAGEPAILECQPPRGHPEPTIYWKKDKVRIDDKEERISIRGGKLMISNTRKSDAGMYTCVGTNMVGERDSDPAELTVFERGGSGGSEPKSSDKTHTCPPCPAPEAAGAPSVFLFPPKPKDTLMISRTPEVTCVVVDVSHEDPEVKFNWYVDGVEVHNAKTKPREEQYNSTYRVVSVLTVLHQDWLNGKEYKCKVSNKALPAPIEKTISKAKGQPREPQVYTLPPSREEMTKNQVSLTCLVKGFYPSDIAVEWESNGQPENNYKTTPPVLDSDGSFFLYSKLTVDKSRWQQGNVFSCSVMHEALHNHYTQKSLSLSPG
notes: Labelled with Alexa Fluor 647 in the flow cytometry assay; also called ROBO-Fc 2.2; ROBO2-Fc 2.2-AF647
Human SLIT1-N
  IC50: 5.9 nM
Mouse SLIT2-N
  IC50: 5.4 nM

Reference: US20210214414A1 (Pfizer, published 2021)
